Experimental data as given in patent US20250084126A1, “PEPTIDE AND COMPOSITION” (OSAKA UNIVERSITY, priority 2021, published 2025).
No end group written: not given here.

Legend:
hDPSCs [1] = experiment: LDH-assay cytotoxicity to hDPSCs; format: cell-based, human; details: for cytotoxicity, overall conclusion: 0.1-100 μg/ml, versus PBS; for cytotoxicity compared to the control (LDH-assay): 2 days, control PBS, p<0.05
Protocol: The hDPSCs were seeded in α-MEM medium containing 10% FBS added with the four peptides at concentrations of 0.1, 1, 10, and 100 μg/ml in a 96 well plate at 5,000 cells/well and cultured at 37° C. for 2 days in a 5% CO2 gas phase. For toxicity test, culture supernatant was collected and LDH-assay was performed using LDH Cytotoxicity Detection Kit (Takara Bio Inc., Shiga). A reagent was added to the collected culture supernatant, and the culture supernatant was placed at 37° C. for 30 minutes in the 5% CO2 gas phase. The absorbance at 405 nm was then measured using the microplate reader (ARVO MX). To further evaluate the proliferative capacity, WST-1-assay was performed using Premix WST-1 Cell Proliferation Assay System (Takara Bio Inc.) after the cells had been continuously cultured for 1 day. The culture was added with a WST-1 reagent and allowed to stand for 30 minutes at 37° C. in the 5% CO2 gas phase. After shaking for 1 minute at room temperature, the absorbance at 450 nm was measured using the microplate reader (ARVO MX). A sample in which the PBS was added to the culture was used as a control, and the number of samples was 6 for each condition.
(§1) The statistical significance test in the above experiment was performed using the One-way ANOVA and Tukey's test for a cytotoxicity test and Kruskal-Wallis-test for a cell proliferation test and a comparison of the amount of formed tertiary dentin in the direct pulp capping experiment, with a critical value of 5%.

[2] = system: exposed pulp of rat molars; experiment: Direct pulp capping experiment using Protein S100 family-derived peptide; format: in vivo; details: 4 weeks; for structure of the tertiary dentin compared to the samples treated with the peptides (HE staining): 1 μg/ml; for number of samples with tertiary dentin formation that completely sealed the exposed pulp region: micro-CT scoring, n=8 per condition, peptides 100 μg/ml, recombinant proteins 1 μg/ml, 20 μl in gelatin sponge; for closure of the surface of the exposed pulp (HE staining): representative samples with complete tertiary dentin formation
Protocol: To evaluate the effect of the Protein S100 family-derived peptide on ability of forming of the tertiary dentin, a direct pulp capping experiment was performed on rat molars using a gelatin sponge (Spongel®) soaked with 20 μl of each PBS solution containing the No. 28, No. 47, No. 32, or No. 51 peptide at a concentration of 100 μg/ml using the same way as described in the section 1) of “Materials and Methods” of the section 1 of the section I above. PBS solution containing the S100-A8 (PROSPEC, Israel), the PBS solution containing the S100-A9 (PROSPEC), wherein the S100-A8 and S100-A9 are a recombinant of the protein from which the peptide was derived, at a concentration of 1 μg/ml, and the PBS solution alone were used as controls. After 4 weeks from the capping treatment, the micro-CT imaging and image analysis were performed on the tertiary dentin formed just below the exposed pulp. An evaluation method, in which the amount of formed tertiary dentin observed in histopathological images was scored, in the direct pulp capping experiment conducted by Okamoto et al. in the past, was applied to the micro-CT images in this study, and the evaluation was performed by scoring the formed tertiary dentin [Clinical Oral Investigations 2018, 22(8):2879-2887; Journal of Dentistry 2010, 38(10):828-837]. The evaluation was performed by one person, with a score of Grade 0 in cases where the tertiary dentin was formed in only one-third or less of the exposed pulp region, Grade 1 in cases where the tertiary dentin was formed in one-third to two-thirds of the exposed pulp region, Grade 2 in cases where the tertiary dentin was formed in two-thirds or more of the exposed pulp region, and Grade 3 in cases where the formed tertiary dentin was completely covering the exposed pulp region. In addition, the same micro-CT images were analyzed using the same way as described in the section 2) of “Materials and Methods” of the section 1 of the section I above to evaluate the volume of the formed tertiary dentin. HE staining was also performed using the same way as described in the section 3) of “Materials and Methods” of the section 1 of the section I above, and histopathological evaluation of the formation of the tertiary dentin was performed. The number of samples was 8 for each condition.
as §1

hDPSCs [3] = experiment: Proteome analysis (LC-MS/MS) of proteins expressed by hDPSCs; format: cell-based, human; details: 0.1 mM, 7 days
Protocol: The No. 28 peptide or the recombinant S100-A8, the protein from which the No. 28 peptide is derived, was applied to the hDPSCs to compare and quantify the proteins expressed by the hDPSCs by the LC-MS/MS. The hDPSCs were seeded in a 100 mm cell culture dish at 3,000,000 cells/plate in the mineralization induction medium containing each of the samples containing the No. 28 peptide or the S100-A8 at a concentration of 0.1 mM, and cultured at 37° C. in the 5% CO2 gas phase for 7 days. Then, plasma membrane and cytoplasmic proteins were extracted using a plasma membrane protein extraction kit (Cosmo Bio Co., Ltd., Tokyo). As a practical procedure, the hDPSCs were cultured for 7 days, collected with a scraper, added with Buffer A included in the kit, and left on ice for 10 minutes. The hDPSCs were then transferred into a microtube with a filter cartridge included in the kit and centrifuged at 14,000 rpm for 30 seconds. After discarding the cartridge and agitating for 10 seconds, the microtube was centrifuged at 3000 rpm for 1 minute and the supernatant was collected. The collected supernatant was then centrifuged at 14,000 rpm for 30 minutes to extract the cytoplasmic proteins separated in a supernatant and the plasma membrane proteins separated in pellet. As a control, the hDPSCs cultured in mineralization induction medium supplemented with the PBS were used.
Each sample was analyzed by liquid chromatography using UltiMate 3000 Nano LC systems (Thermo Fisher Scientific, USA) and ESI-column (0.075×150 mm) (Thermo Fisher Scientific). A 0.1% formic acid aqueous solution containing acetonitrile was used as a mobile phase at a flow rate of 300 nL/min. The concentration of acetonitrile was 5% for the first 5 min, increased to 40% in 95 min, then increased at a constant rate for 2 min to 90%, and maintained for 5 min. The peptides were analyzed using Q-Exactive (Thermo Fisher Scientific). Identification and quantitative analysis of the proteins were performed by peptide mass fingerprinting using Mascot Distiller v2.5, Mascot Server v2.5 (Matrix Science, USA), and UniProt on obtained MS/MS spectra.
In addition, to evaluate changes in expression levels of the proteins, the following criteria were used to narrow down the identified plasma membrane-derived and cytoplasm-derived proteins among the samples.
• Proteins whose measured values were higher in the S100-A8 group than in the control group • Proteins whose measured values in the peptide group are more than twice as high as those in the control group • Proteins whose measured values in both the peptide group and the S100-A8 group are equal to or greater than 1 (a.u.; arbitrary unit)
• Proteins whose measured values were lower in the S100-A8 group than in the control group • Proteins whose measured values in the control group are more than twice as high as those in the peptide group • Proteins whose measured values in the control group are equal to or greater than 1 (a.u.; arbitrary unit)
Each of the groups narrowed down by the above criteria was analyzed using Gene Ontology (GO) classification. The GO provides an internationally standardized GO Term, which is intended to describe biological functions. The GO Term is organized in a hierarchical structure, with the upper order representing general functions and the lower order representing more detailed functions. For example, there are three categories at the top: “Molecular function,” “Biological process,” and “Cellular component.”
The GO Term belonging to “Molecular function” and “Biological process” which represent their respective functions from the above classification were searched for the protein groups obtained in this experiment, and the functions characteristic to each protein group were examined.

pulp cells = details: reported in Non Patent Literature 1; cited from earlier work
exposed pulp = details: rat in vivo, reported in Non Patent Literature 1; cited from earlier work
[4] = mineralization induction medium, count for No. 28 peptide or S100-A8 jointly

KLLETECPQ [No. 28 peptide, Lys-Leu-Leu-Glu-Thr-Glu-Cys-Pro-Gln]
cytotoxicity, overall conclusion (hDPSCs [1]): comparable to that of the PBS | cytotoxicity compared to the control (LDH-assay) (hDPSCs [1]; all concentrations (0.1, 1, 10, 100 μg/ml)): significantly lower cytotoxicity

NADKQLSFE [No. 51 peptide, Asn-Ala-Asp-Lys-Gln-Leu-Ser-Phe-Glu]
cytotoxicity compared to the control (LDH-assay) (hDPSCs [1]; 10 μg/ml): significantly lower cytotoxicity | cytotoxicity compared to the control (LDH-assay) (hDPSCs [1]; 100 μg/ml): significantly lower cytotoxicity | cytotoxicity, overall conclusion (hDPSCs [1]): comparable to that of the PBS

NTDGAVNFQ [No. 32 peptide, Asn-Thr-Asp-Gly-Ala-Val-Asn-Phe-Gln]
cytotoxicity compared to the control (LDH-assay) (hDPSCs [1]; 1 μg/ml): significantly lower cytotoxicity | cytotoxicity, overall conclusion (hDPSCs [1]): comparable to that of the PBS

B1: S100-A9: recombinant of the protein from which the peptide was derived (PROSPEC); UniProtKB-P06702 (protein, UniProt P06702 1-114, looked up)
Protein S100-A9: MTCKMSQLERNIETIINTFHQYSVKLGHPDTLNQGEFKELVRKDLQNFLKKENKNEKVIEHIMEDLDTNADKQLSFEEFIMLMARLTWASHEKMHEGDEGPGHHHKPGLGEGTP
structure of the tertiary dentin compared to the samples treated with the peptides (HE staining) [2]: sparse structure | number of samples with tertiary dentin formation that completely sealed the exposed pulp region [2]: 2 samples | closure of the surface of the exposed pulp (HE staining) [2]: completely closed by the formed tertiary dentin

B2: S100-A8: recombinant of the protein from which the peptide was derived (PROSPEC); UniProtKB-P05109 (protein, UniProt P05109 1-93, looked up)
Protein S100-A8: MLTELEKALNSIIDVYHKYSLIKGNFHAVYRDDLKKLLETECPQYIRKKGADVWFKELDINTDGAVNFQEFLILVIKMGVAAHKKSHEESHKE
structure of the tertiary dentin compared to the samples treated with the peptides (HE staining) [2]: sparse structure | number of samples with tertiary dentin formation that completely sealed the exposed pulp region [2]: 1 samples | closure of the surface of the exposed pulp (HE staining) [2]: completely closed by the formed tertiary dentin | expression levels of proteins promoting MAPK signaling pathway (MAP2K1, CDH2, NRAS, MAP1, CRK, PSMB7) versus control (hDPSCs [3]; GO Term analysis): decreased | expression levels of proteins promoting NFκB signaling pathway (FLOT1, 3KCR1, LYRIC, GJA1, S100A-13, NOL3) versus control (hDPSCs [3]; GO Term analysis): more increased | cytoplasm-derived proteins whose expression levels were more decreased than in the control (hDPSCs [3]; [4]): 67 proteins | cytoplasm-derived proteins whose expression levels were more increased than in the control (hDPSCs [3]; [4]): 250 proteins | plasma membrane-derived proteins whose expression levels were more decreased than in the control (hDPSCs [3]; [4]): 97 proteins | plasma membrane-derived proteins whose expression levels were more increased than in the control (hDPSCs [3]; [4]): 158 proteins | effect on pulp cells in vitro (pulp cells): activates proliferation, differentiation, and mineralization abilities | tertiary dentin induction in the direct pulp capping experiment (exposed pulp): completely covers the surface of the exposed pulp
